These binders were tested against human prominin-1 expressed in E. coli as a 6*HIS fusion protein (human) (UniProt O43490) (assay: ELISA on plate-coated human prominin-1, hybridoma secreted antibody diluted at 1:2000).

Binder	A450
monoclonal antibody produced by Hybridoma Clone 7 (antibody, V domains shown) VH: EVKLVESGPELKKPGETVKISCKASGYTFTDYSMHWVNQAPGKGLKWMGWINTETGEPSYADDFKGRFAFSLETSASTAYLQINNLKNEDTATYFCATDYGDYFDYWGQGTTLTVSS VL: DIVLSQSPAIMSASPGEKVTISCSASSSVSYMYWYQQKPGSSPKPWIYRTSNLASGVPARFSGSGSGTSYSLTISSMEAEDAATYYCQQYHSYPPTFGAGTKLELK	1.9 A450

These binders were tested against human prominin-1 expressed in E. coli as a 6*HIS fusion protein (human) (UniProt O43490) (assay: phage ELISA on plate-coated human prominin-1, HRP-conjugated anti-M13).

Binder	A450
scFv clone No. 7, displayed on phage (scFv) scFv: AQAAELDIVLTQSPAIMSASPGEKVTISCSASSSVSYMYWYQQKPGQPPRLLIYLVSNLESGVPARFSGSGSGTDFTLNIHPVEEEDAATYYCQQYHSYPPTFGAGTKLEIKSSGGGGSGGGGGGSSRSSLEVKLVESGPELKKPGETVKISCKASGYTFTDYSMHWVNQAPGKGLKWMGWINTETGEPSYADDFKGRFAFSLETSASTAYLQINNLKNEDTATYFCATDYGDYFDYWGQGTTLTVSSAKTTPPSVTSGQAGQ	0.9 A450
scFv clone No. 4, displayed on phage (scFv) scFv: AQAAELDIVLTQSPAIMSASPGEKVTISCSASSSVGYMYWYQQKPGSSPKPWIYRPSNLASGVPARFSGSGSGTSYSLTISSMEAEDAATYYCQQYHSYPPTFGAGTKLELKSSGGGGSGGGGGGSSRSSLEVKLVESGPELKKPGETVKISCKASGYTFTDYSMHWVNQAPGKGLKWMGWINTETGEPSYADDFKGRFAFSLETSASTAYLQINNLKNEDTATYFCATDYGDYFDYWGQGTTLTVSSAKTTPPSVTSGQ	1 A450
scFv clone No. 5, displayed on phage (scFv) scFv: AQAAELDIVLTQSPAIMSASPGEKVTISCSASSSVSYMYWYQQKPGSSPKPWIYRTSNLASGVPARFSGSGSGTSYSLTISSMEAEDAATYYCQQYHSYPPTFGAGTKLELKSSGGGGSGGGGGGSSRSSLEVKLVESGPELKKPGETVKISCKASGYTFTDYSMHWVNQAPGKGLKWMGWINTETGEPSYADDFKGRFAFSLETSASTAYLQINNLKNEDTATYFCATDYGDYFDYWGQGTTLTVSSAKTTPPSVTSGQAGQ	1.3 A450
scFv clone No. 10, displayed on phage (scFv) scFv: AQAAELDIVLSQSPAIMSASPGEKVTISCSASSSVSYMYWYQQKPGSPPKPWIYRTSNLASGVPARFSGSGSGTSYSLTISSMEAEDAATYYCQQYHSYPPTFGAGTKLELKSSGGGGSGGGGGGSSRSSLEVKLVESGPELKKPGETVKISCKASGYTFTDYSMHWVNQAPGKGLKWMGWINTETGEPSYADDFKGRFAFSLETSASTAYLQINNLKNEDTATYFCATDCGDYFDYWGQGTTLTVSSAKTTPPSVTSGQAGQ	1.2 A450
scFv clone No. 23, displayed on phage (scFv) scFv: AQAAELDIVLTQSPAIMSASPGEKVTISCSASSSVSYMYWYQQKPGSSPKPWIYRPSNLASGVPARFSGSGSGTSYSLTISSMEAEDAATYYCQQYHSYPPTFGAGTKLELKSSGGGGSGGGGGGSSRSSLEVQLVESGPELKKPGETVKISCKASGYTFTDYSMHWVNQAPGKGLKWMGWINTETGEPSYADDFKGRFAFSLETSASTAYLQINNLKNEDTATYFCATDYGDYFDYWGQGTTLTVSSAKTTAPSVTSGQAGQ	1.1 A450
scFv clone No. 22, displayed on phage (scFv) scFv: AQAAELDIVLTQSPAIMSASPGEKVTISCSASSSVSYMYWYQQKPGSSPKPWIYRPSNLASGVPARFSGSGSGTSYSLTISSMEAEDAATYYCQQYHSYPPTFGAGTKLELKSSGDGGSGGGGGGSSRSSLEVKLVESGPELKKPGETVKISCKASGYTFTDYSMHWVNQAPGKGLKWMGWINTETGEPSYADDFKGRFAFSLETSASTAYLQINNLKNEDTATYFCATDYGDYFDYWGQGTTLTVSSAKTTAPSVTSGQAGQ	1.2 A450
scFv clone No. 8, displayed on phage (scFv) scFv: AQAAELDIVLTQSPAIMSASPGEKVTISCSASSSVSYMYWYQQKPGSSPKPWIYRPSNLASGVPARFSGSGSGTSYSLTISSMEAEDAATYYCQQYHSYPPTFGAGTKLELKSSGGGGSGGGGGGSSRSSLEVHLVESGPELKKPGETVKISCKASGYTFTDYSMHWVNQAPGKGLKWMGWINTETGEPSYADDFKGRFAFSLETSASTAYLQINNLKNEDTATYFCATDYGDYFDYWGQGTTLTVSSAKTTPPSVTSGQAGQ	1 A450
scFv clone No. 6, displayed on phage (scFv) scFv: AQAAELDIVLTQSPAIMSASPGEKVTISCSASSSVSYMYWYQQKPGSSPKPWIYRPSNLASGVPARFSGSGSGTSYSLTISSMEAEDAATYYCQQYHSYPPTFGAGTKLELKSSGGGGSGGGGGGSSRSSPEVMLVESGPELKKPGETVKISCKASGYTFTDYSMHWVNQAPGKGLKWMGWINTETGEPSYADDFKGRFAFSLETSASTAYLQINNLKNEDTATYFCATDYGDYFDYWGQGTTLTVSSAKTTPPSVTSGQAGQ	1.3 A450
scFv clone No. 11, displayed on phage (scFv) scFv: AQAAELDIVLSQSPAIMSASPGEKVTISCSASSSVSYMYWYQQKPGSSPKPWIYRTSNLASGVPARFSGSGSGTSYSLTISSMEAEDAATYYCQQYHSYPPTFGAGTKLELKSSGGGGSGGGGGGSSRSSLEVKLVESGPELKKPGETVKISCKASGYTFTDYSMHWVNQAPGKGLKWMGWINTETGEPSYADDFKGRFAFSLETSASTAYLQINNLKNEDTATYFCATDYGDYFDYWGQGTTLTVSSAKTTPPSVTSGQAGQ	1.4 A450

Reference: US20130224202A1
